Reference: article PMC8571082

Tests used:
[1] = biological target: T1, factor inhibiting HIF-1 (FIH-1), full-length (human), Q9NWT6; experiment: SEC; FIH-1 alone, wild type at ~7 μM; profiles of FIH-1 WT and L340R; details: remark: other sources report otherwise
[2] = biological target: T1, factor inhibiting HIF-1 (FIH-1), …; experiment: SEC-MALS; FIH-1 alone at 70 μM, 50 μl on Superdex 200 10/300 GL; 35 mM Na-phosphate pH 7.5, 300 mM NaCl, 500 μM αKG; details: remark: other sources report otherwise

B1: factor inhibiting HIF-1 (FIH-1), full-length, Q9NWT6 1-349 (enzyme)
chain: MAATAAEAVASGSGEPREEAGALGPAWDESQLRSYSFPTRPIPRLSQSDPRAEELIENEEPVVLTDTNLVYPALKWDLEYLQENIGNGDFSVYSASTHKFLYYDEKKMANFQNFKPRSNREEMKFHEFVEKLQDIQQRGGEERLYLQQTLNDTVGRKIVMDFLGFNWNWINKQQGKRGWGQLTSNLLLIGMEGNVTPAHYDEQQNFFAQIKGYKRCILFPPDQFECLYPYPVHHPCDRQSQVDFDNPDYERFPNFQNVVGYETVVGPGDVLYIPMYWWHHIESLLNGGITITVNFWYKGAPTPKRIEYPLKAHQKVAIMRNIEKMLGEALGNPQEVGPLLNTMIKGRYN
Q: What does the source list for B1?
A: stoichiometry N [1]: 2; stoichiometry N [2]: 2
